Biological target: mouse OX40-His (Cat: ab221028, Abcam) (mouse) (UniProt P47741)
Test: ELISA on coated mouse OX40-His

mouse OX40-His (Cat: ab221028, Abcam) (mouse), sequence (P47741 20-211 limits assumed): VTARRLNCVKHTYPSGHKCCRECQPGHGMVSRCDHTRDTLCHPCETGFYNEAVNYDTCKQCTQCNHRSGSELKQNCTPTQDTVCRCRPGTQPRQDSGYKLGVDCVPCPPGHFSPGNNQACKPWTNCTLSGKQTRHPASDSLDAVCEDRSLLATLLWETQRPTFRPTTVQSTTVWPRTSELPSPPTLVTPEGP

EC50: 0.11 µg/mL
B1: 1A7.gr1 (antibody, from another filing, V domains shown)
VH: EVQLVQSGAEVKKPGASVKVSCKASGYTFTDSYMSWVRQAPGQGLEWIGDMYPDNGDSSYNQKFRERVTITRDTSTSTAYLELSSLRSEDTAVYYCVLAPRWYFSVWGQGTLVTVSS
VL: DIQMTQSPSSLSASVGDRVTITCRASQDISNYLNWYQQKPGKAPKLLIYYTSRLRSGVPSRFSGSGSGTDFTLTISSLQPEDFATYYCQQGHTLPPTFGQGTKVEIK

Reference: US20230011916A1, “METHODS OF CANCER TREATMENT USING ANTI-OX40 ANTIBODIES IN COMBINATION WITH PI3 KINASE DELTA INHIBITORS” (BEIGENE, LTD., priority 2019, published 2023)
